Measured values as given in patent publication US20160346402A1.

Biological target: TPP-2305, hTNFRSF12 amino acids a28-80 (recombinant human TWEAKR protein) (human) (UniProt Q9NP84)
Test: SPR (Biacore T100), antibody captured, TWEAKR TPP-2305 as analyte, 1:1 model

B1: ITEM-1 (antibody, from another filing, V domains shown)
VH: EVKLEESGGGLVQPGGSMKLSCVASGFSFSNYWMNWVRQSPEKGLEWVAEIRLKSNNYATHYAESVKGRFTISRHDSKSSVYLQMNNLRAEDTGIYYCTRAYADYFDYWGQGTTLTVSS
VL: DIVLTQSPASLVVSLGQRATISCRASQSVSTSTYSYMHWYQQKPGQPPKILIKYASNLESGVPARFSGSGSGTDFTLNIHPVEEEDTATYYCQHSWEIPYTFGGGTKLEIKR
Kd: 2.9 nM | koff: 0.011 s⁻¹ | kon: 3.8e+06 M⁻¹ s⁻¹
